Reference: publication PMC6226330

Assays:
Test in all cases: purified protein, by the assay type
Details in all cases: pH 8.0; 25.0 °C
[1] = substrate: Nc1ccc(C(=O)O)c(F)c1
[2] = substrate: Nc1ccc(C(=O)O)c(O)c1
[3] = substrate: Nc1ccc(C(=O)O)cc1

B1: S. aureus DHPS (Staphylococcus aureus) (protein)
chain: MTKTKIMGILNVTPDSFSDGGKFNNVESAVTRVKAMMDEGADIIDVGGVSTRPGHEMITVEEELNRVLPVVEAIVGFDVKISVDTFRSEVAEACLKLGVDIINDQWAGLYDHRMFQVVAKYDAEIVLMHNGNGNRDEPVVEEMLTSLLAQAHQAKIAGIPSNKIWLDPGIGFAKTRNEEAEVMARLDELVATEYPVLLATSRKRFTKEMMGYDTTPVERDEVTAATTAYGIMKGVRAVRVHNVELNAKLAKGIDFLKENENARHNFS
- Km [1]: 5 ± 2 µM
- kcat [1]: 200 ± 20 min^–1
- Km [2]: 8 ± 1 µM
- kcat [2]: 220 ± 10 min^–1
- Km [3]: 2 ± 1 µM
- kcat [3]: 170 ± 15 min^–1
